A short description of data set [1]: mCherry co-localisation with organelle-targeted eGFP. To be noted: glycan lost; control: wild type.
Data set [2] in a line: Western blot of cell lysate. The following applies: glycan lost; control: wild type. On the technique in general: In western blotting, separated proteins are transferred to a membrane and probed.
A short description of data set [3]: fluorogenic substrate assay on cell lysate. The following applies: glycan lost; control: wild type.
Data set [4] is described as follows: mCherry fluorescence in media, 32 h time course. The following applies: glycan lost; control: wild type.
The nature of data set [5]: Western blot of culture media, 24 h. The following applies: glycan lost; control: wild type.
The nature of data set [6]: Western blot of media, transfected HEK293. The following applies: control: untreated.
The nature of data set [7]: mCherry fluorescence in media, 24 h, N38X series. To be noted: glycan lost; control: wild type.

B1: human matrix metalloproteinase 9 (hMMP-9): N120S (protein)
parent chain: MSLWQPLVLVLLVLGCCFAAPRQRQSTLVLFPGDLRTNLTDRQLAEEYLYRYGYTRVAEMRGESKSLGPALLLLQKQLSLPETGELDSATLKAMRTPRCGVPDLGRFQTFEGDLKWHHHNITYWIQNYSEDLPRAVIDDAFARAFALWSAVTPLTFTRVYSRDADIVIQFGVAEHGDGYPFDGKDGLLAHAFPPGPGIQGDAHFDDDELWSLGKGVVVPTRFGNADGAACHFPFIFEGRSYSACTTDGRSDGLPWCSTTANYDTDDRFGFCPSERLYTQDGNADGKPCQFPFIFQGQSYSACTTDGRSDGYRWCATTANYDRDKLFGFCPTRADSTVMGGNSAGELCVFPFTFLGKEYSTCTSEGRGDGRLWCATTSNFDSDKKWGFCPDQGYSLFLVAAHEFGHALGLDHSSVPEALMYPMYRFTEGPPLHKDDVNGIRHLYGPRPEPEPRPPTTTTPQPTAPPTVCPTGPPTVHPSERPTAGPTGPPSAGPTGPPTAGPSTATTVPLSPVDDACNVNIFDAIAEIGNQLYLFKDGKYWRFSEGRGSRPQGPFLIADKWPALPRKLDSVFEERLSKKLFFFSGRQVWVYTGASVLGPRRLDKLGLGADVAQVTGALRSGRGKMLLFSGRRLWRFDVKAQMVDPRSASEVDRMFPGVPLDTHDVFQYREKAYFCQDRFYWRVSSRSELNQVDQVGYVTYDILQCPED
B1: the localisation_or_trafficking entry in data set [1] is on record as “changes”. The expression_or_secretion entry is recorded as “no change” in data set [2] and “decreases” in data set [5]. Besides, the enzymatic_activity result in data set [3] was “decreases”. In data set [4], the “expression_or_secretion, fold_change” value was “decreases”.

B2: human matrix metalloproteinase 9 (hMMP-9): castanospermine (CST) (protein)
parent chain: MSLWQPLVLVLLVLGCCFAAPRQRQSTLVLFPGDLRTNLTDRQLAEEYLYRYGYTRVAEMRGESKSLGPALLLLQKQLSLPETGELDSATLKAMRTPRCGVPDLGRFQTFEGDLKWHHHNITYWIQNYSEDLPRAVIDDAFARAFALWSAVTPLTFTRVYSRDADIVIQFGVAEHGDGYPFDGKDGLLAHAFPPGPGIQGDAHFDDDELWSLGKGVVVPTRFGNADGAACHFPFIFEGRSYSACTTDGRSDGLPWCSTTANYDTDDRFGFCPSERLYTQDGNADGKPCQFPFIFQGQSYSACTTDGRSDGYRWCATTANYDRDKLFGFCPTRADSTVMGGNSAGELCVFPFTFLGKEYSTCTSEGRGDGRLWCATTSNFDSDKKWGFCPDQGYSLFLVAAHEFGHALGLDHSSVPEALMYPMYRFTEGPPLHKDDVNGIRHLYGPRPEPEPRPPTTTTPQPTAPPTVCPTGPPTVHPSERPTAGPTGPPSAGPTGPPTAGPSTATTVPLSPVDDACNVNIFDAIAEIGNQLYLFKDGKYWRFSEGRGSRPQGPFLIADKWPALPRKLDSVFEERLSKKLFFFSGRQVWVYTGASVLGPRRLDKLGLGADVAQVTGALRSGRGKMLLFSGRRLWRFDVKAQMVDPRSASEVDRMFPGVPLDTHDVFQYREKAYFCQDRFYWRVSSRSELNQVDQVGYVTYDILQCPED
For the protein B2, the expression_or_secretion result in data set [6] (glycan changed form) is listed as “decreases”.

B3: human matrix metalloproteinase 9 (hMMP-9): mS38/ N120S (protein)
parent chain: MSLWQPLVLVLLVLGCCFAAPRQRQSTLVLFPGDLRTNLTDRQLAEEYLYRYGYTRVAEMRGESKSLGPALLLLQKQLSLPETGELDSATLKAMRTPRCGVPDLGRFQTFEGDLKWHHHNITYWIQNYSEDLPRAVIDDAFARAFALWSAVTPLTFTRVYSRDADIVIQFGVAEHGDGYPFDGKDGLLAHAFPPGPGIQGDAHFDDDELWSLGKGVVVPTRFGNADGAACHFPFIFEGRSYSACTTDGRSDGLPWCSTTANYDTDDRFGFCPSERLYTQDGNADGKPCQFPFIFQGQSYSACTTDGRSDGYRWCATTANYDRDKLFGFCPTRADSTVMGGNSAGELCVFPFTFLGKEYSTCTSEGRGDGRLWCATTSNFDSDKKWGFCPDQGYSLFLVAAHEFGHALGLDHSSVPEALMYPMYRFTEGPPLHKDDVNGIRHLYGPRPEPEPRPPTTTTPQPTAPPTVCPTGPPTVHPSERPTAGPTGPPSAGPTGPPTAGPSTATTVPLSPVDDACNVNIFDAIAEIGNQLYLFKDGKYWRFSEGRGSRPQGPFLIADKWPALPRKLDSVFEERLSKKLFFFSGRQVWVYTGASVLGPRRLDKLGLGADVAQVTGALRSGRGKMLLFSGRRLWRFDVKAQMVDPRSASEVDRMFPGVPLDTHDVFQYREKAYFCQDRFYWRVSSRSELNQVDQVGYVTYDILQCPED
Take B3: the localisation_or_trafficking result in data set [1] is given as “changes”. The expression_or_secretion result in data set [2] was “no change”; in data set [5] it was “abolishes”. The enzymatic_activity entry in data set [3] is recorded as “decreases”. Also, the “expression_or_secretion, fold_change” value in data set [4] is listed as “decreases”.

B4: human matrix metalloproteinase 9 (hMMP-9): N38G (protein)
parent chain: MSLWQPLVLVLLVLGCCFAAPRQRQSTLVLFPGDLRTNLTDRQLAEEYLYRYGYTRVAEMRGESKSLGPALLLLQKQLSLPETGELDSATLKAMRTPRCGVPDLGRFQTFEGDLKWHHHNITYWIQNYSEDLPRAVIDDAFARAFALWSAVTPLTFTRVYSRDADIVIQFGVAEHGDGYPFDGKDGLLAHAFPPGPGIQGDAHFDDDELWSLGKGVVVPTRFGNADGAACHFPFIFEGRSYSACTTDGRSDGLPWCSTTANYDTDDRFGFCPSERLYTQDGNADGKPCQFPFIFQGQSYSACTTDGRSDGYRWCATTANYDRDKLFGFCPTRADSTVMGGNSAGELCVFPFTFLGKEYSTCTSEGRGDGRLWCATTSNFDSDKKWGFCPDQGYSLFLVAAHEFGHALGLDHSSVPEALMYPMYRFTEGPPLHKDDVNGIRHLYGPRPEPEPRPPTTTTPQPTAPPTVCPTGPPTVHPSERPTAGPTGPPSAGPTGPPTAGPSTATTVPLSPVDDACNVNIFDAIAEIGNQLYLFKDGKYWRFSEGRGSRPQGPFLIADKWPALPRKLDSVFEERLSKKLFFFSGRQVWVYTGASVLGPRRLDKLGLGADVAQVTGALRSGRGKMLLFSGRRLWRFDVKAQMVDPRSASEVDRMFPGVPLDTHDVFQYREKAYFCQDRFYWRVSSRSELNQVDQVGYVTYDILQCPED
As to B4, in data set [7], the expression_or_secretion entry is given as “no change”.

B5: human matrix metalloproteinase 9 (hMMP-9): tunicamycin (protein)
parent chain: MSLWQPLVLVLLVLGCCFAAPRQRQSTLVLFPGDLRTNLTDRQLAEEYLYRYGYTRVAEMRGESKSLGPALLLLQKQLSLPETGELDSATLKAMRTPRCGVPDLGRFQTFEGDLKWHHHNITYWIQNYSEDLPRAVIDDAFARAFALWSAVTPLTFTRVYSRDADIVIQFGVAEHGDGYPFDGKDGLLAHAFPPGPGIQGDAHFDDDELWSLGKGVVVPTRFGNADGAACHFPFIFEGRSYSACTTDGRSDGLPWCSTTANYDTDDRFGFCPSERLYTQDGNADGKPCQFPFIFQGQSYSACTTDGRSDGYRWCATTANYDRDKLFGFCPTRADSTVMGGNSAGELCVFPFTFLGKEYSTCTSEGRGDGRLWCATTSNFDSDKKWGFCPDQGYSLFLVAAHEFGHALGLDHSSVPEALMYPMYRFTEGPPLHKDDVNGIRHLYGPRPEPEPRPPTTTTPQPTAPPTVCPTGPPTVHPSERPTAGPTGPPSAGPTGPPTAGPSTATTVPLSPVDDACNVNIFDAIAEIGNQLYLFKDGKYWRFSEGRGSRPQGPFLIADKWPALPRKLDSVFEERLSKKLFFFSGRQVWVYTGASVLGPRRLDKLGLGADVAQVTGALRSGRGKMLLFSGRRLWRFDVKAQMVDPRSASEVDRMFPGVPLDTHDVFQYREKAYFCQDRFYWRVSSRSELNQVDQVGYVTYDILQCPED
As for B5, in data set [6] (glycan lost), the expression_or_secretion result is listed as “decreases”.

B6: human matrix metalloproteinase 9 (hMMP-9): N38P (protein)
parent chain: MSLWQPLVLVLLVLGCCFAAPRQRQSTLVLFPGDLRTNLTDRQLAEEYLYRYGYTRVAEMRGESKSLGPALLLLQKQLSLPETGELDSATLKAMRTPRCGVPDLGRFQTFEGDLKWHHHNITYWIQNYSEDLPRAVIDDAFARAFALWSAVTPLTFTRVYSRDADIVIQFGVAEHGDGYPFDGKDGLLAHAFPPGPGIQGDAHFDDDELWSLGKGVVVPTRFGNADGAACHFPFIFEGRSYSACTTDGRSDGLPWCSTTANYDTDDRFGFCPSERLYTQDGNADGKPCQFPFIFQGQSYSACTTDGRSDGYRWCATTANYDRDKLFGFCPTRADSTVMGGNSAGELCVFPFTFLGKEYSTCTSEGRGDGRLWCATTSNFDSDKKWGFCPDQGYSLFLVAAHEFGHALGLDHSSVPEALMYPMYRFTEGPPLHKDDVNGIRHLYGPRPEPEPRPPTTTTPQPTAPPTVCPTGPPTVHPSERPTAGPTGPPSAGPTGPPTAGPSTATTVPLSPVDDACNVNIFDAIAEIGNQLYLFKDGKYWRFSEGRGSRPQGPFLIADKWPALPRKLDSVFEERLSKKLFFFSGRQVWVYTGASVLGPRRLDKLGLGADVAQVTGALRSGRGKMLLFSGRRLWRFDVKAQMVDPRSASEVDRMFPGVPLDTHDVFQYREKAYFCQDRFYWRVSSRSELNQVDQVGYVTYDILQCPED
As to B6, the expression_or_secretion entry in data set [7] is “no change”.

B7: human matrix metalloproteinase 9 (hMMP-9): N38E (protein)
parent chain: MSLWQPLVLVLLVLGCCFAAPRQRQSTLVLFPGDLRTNLTDRQLAEEYLYRYGYTRVAEMRGESKSLGPALLLLQKQLSLPETGELDSATLKAMRTPRCGVPDLGRFQTFEGDLKWHHHNITYWIQNYSEDLPRAVIDDAFARAFALWSAVTPLTFTRVYSRDADIVIQFGVAEHGDGYPFDGKDGLLAHAFPPGPGIQGDAHFDDDELWSLGKGVVVPTRFGNADGAACHFPFIFEGRSYSACTTDGRSDGLPWCSTTANYDTDDRFGFCPSERLYTQDGNADGKPCQFPFIFQGQSYSACTTDGRSDGYRWCATTANYDRDKLFGFCPTRADSTVMGGNSAGELCVFPFTFLGKEYSTCTSEGRGDGRLWCATTSNFDSDKKWGFCPDQGYSLFLVAAHEFGHALGLDHSSVPEALMYPMYRFTEGPPLHKDDVNGIRHLYGPRPEPEPRPPTTTTPQPTAPPTVCPTGPPTVHPSERPTAGPTGPPSAGPTGPPTAGPSTATTVPLSPVDDACNVNIFDAIAEIGNQLYLFKDGKYWRFSEGRGSRPQGPFLIADKWPALPRKLDSVFEERLSKKLFFFSGRQVWVYTGASVLGPRRLDKLGLGADVAQVTGALRSGRGKMLLFSGRRLWRFDVKAQMVDPRSASEVDRMFPGVPLDTHDVFQYREKAYFCQDRFYWRVSSRSELNQVDQVGYVTYDILQCPED
As for B7, the expression_or_secretion entry in data set [7] was “no change”.

(Values after paper PMC4774645.)
